{"source": "paper PMC11885821", "about": "“Structures of complete HIV-1 TAR RNA portray a dynamic platform poised for protein binding and structural remodeling”", "molecules": {"B1": {"name": "TAR2GC (WT) (structured_RNA)", "RNA": "GGUCUCUCUGGUUAGACCAGAUCUGAGCCUGGGAGCUCUCUGGCUAACUAGGGAACC"}, "B2": {"name": "TAR A48U/C49G/U50A (structured_RNA)", "RNA": "B1 RNA with A47U, C48G, U49A"}, "B3": {"name": "2AP24 TAR2GC (structured_RNA)", "RNA": "B1 RNA with C23A", "modifications": "2-aminopurine at C24"}, "B4": {"name": "2AP3 TAR2GC C57U (structured_RNA)", "RNA": "B1 RNA with G2A, C56U", "modifications": "2-aminopurine at G3; C57U"}, "B5": {"name": "2AP20 TAR2GC (structured_RNA)", "RNA": "B1 RNA", "modifications": "2-aminopurine at A20"}, "B6": {"name": "2AP17 TAR2GC (structured_RNA)", "RNA": "B1 RNA", "modifications": "2-aminopurine at A17"}, "B7": {"name": "TAR GAAA (TAR-I) (structured_RNA)", "RNA": "B1 RNA with U30G, G31A, G32A, G33A"}}, "key": {"[1]": {"biological_target": "PKR dsRBMs (Homo sapiens) (UniProt P19525)", "sequence (P19525 9-167)": "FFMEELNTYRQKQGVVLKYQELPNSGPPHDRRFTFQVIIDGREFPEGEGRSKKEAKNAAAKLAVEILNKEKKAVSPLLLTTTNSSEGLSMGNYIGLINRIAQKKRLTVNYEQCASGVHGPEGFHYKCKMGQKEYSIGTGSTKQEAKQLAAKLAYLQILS", "experiment": "FP"}, "[2]": {"biological_target": "PKR (unphosphorylated) (Homo sapiens) (UniProt P19525)", "sequence (P19525 whole entry)": "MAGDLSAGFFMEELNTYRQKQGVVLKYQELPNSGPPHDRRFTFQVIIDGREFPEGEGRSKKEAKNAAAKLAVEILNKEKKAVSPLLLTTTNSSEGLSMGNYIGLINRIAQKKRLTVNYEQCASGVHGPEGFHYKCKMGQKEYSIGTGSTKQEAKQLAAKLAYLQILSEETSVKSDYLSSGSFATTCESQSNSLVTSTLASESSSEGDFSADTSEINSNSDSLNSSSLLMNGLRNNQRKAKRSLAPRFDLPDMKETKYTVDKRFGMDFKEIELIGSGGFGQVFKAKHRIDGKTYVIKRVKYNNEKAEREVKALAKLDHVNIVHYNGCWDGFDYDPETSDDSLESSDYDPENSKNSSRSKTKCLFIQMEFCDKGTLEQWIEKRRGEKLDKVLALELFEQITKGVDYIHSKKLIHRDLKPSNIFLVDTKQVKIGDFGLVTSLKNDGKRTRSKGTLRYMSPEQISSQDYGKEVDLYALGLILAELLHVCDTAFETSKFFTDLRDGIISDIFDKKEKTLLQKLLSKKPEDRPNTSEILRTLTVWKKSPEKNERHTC", "experiment": "FP"}, "PKR (unphosphorylated) [3]": {"biological_target": "T1, PKR (unphosphorylated) (Homo sapiens, UniProt P19525 1-551)", "T1 sequence (P19525 whole entry)": "as above", "experiment": "FP", "settings": "protein: recombinant, tags: His tag (HisTrap purified), hairpin"}, "PKR dsRBMs [4]": {"biological_target": "T2, PKR dsRBMs (Homo sapiens, UniProt P19525 9-167)", "T2 sequence (P19525 9-167)": "as the sequence (P19525 9-167) above", "experiment": "FP", "settings": "protein: recombinant, tags: tag cleaved by TEV, hairpin"}, "Tat44-60 WT [5]": {"biological_target": "T3, Tat44-60 WT (HIV-1, UniProt P04608)", "T3 chain": "GISYGRKKRRQRRRAHQ", "experiment": "ITC; 1 mM Mg2+", "settings": "label: 3' FAM in FP; none in ITC and SEC-MALS; hairpin, blunt 2 G-C end; bulges C5, A17, U23-C24-U25"}, "PKR (unphosphorylated) [6]": {"biological_target": "T1, PKR (unphosphorylated)", "experiment": "FP; printed Kd 0.02 uM conflicts with log Ka and with text (3-fold weaker)", "settings": "protein: recombinant; tags: His tag (HisTrap purified); label: 3' FAM; hairpin"}, "NC (nucleocapsid)": {"biological_target": "NC (nucleocapsid) (HIV-1, UniProt P04591 378-432)", "experiment": "2AP fluorescence lifetime", "settings": "protein: recombinant; tags: MBP tag cleaved by PreScission; label: 2AP; hairpin"}, "Tat44-60 WT [7]": {"biological_target": "T3, Tat44-60 WT", "experiment": "2AP fluorescence lifetime", "settings": "label: 2AP; hairpin"}, "PKR dsRBMs [8]": {"biological_target": "T2, PKR dsRBMs", "experiment": "2AP fluorescence lifetime", "settings": "protein: recombinant; tags: tag cleaved by TEV; label: 2AP; hairpin"}, "Tat44-60 WT [9]": {"biological_target": "T3, Tat44-60 WT", "experiment": "crystal structure; peptide soaked into TAR-I crystals, 2.7 A; FP: 25 mM Tris-HCl pH 7.5, 50 mM NaCl, 50 mM KCl, 2 mM MgCl2, 21 C, 5 nM RNA; ITC: 25 mM Tris-HCl pH 7.5, 100 mM NaCl, 1 mM MgCl2, 25 C", "settings": "hairpin, GAAA tetraloop"}, "[10]": {"settings": "label: 3' FAM in FP, none in ITC and SEC-MALS, blunt 2 G-C end, bulges C5, A17, U23-C24-U25"}}, "note": "Changes are numbered by the printed parent chain. In names and notes the source's numbering stands."}
{"molecule": "VA-I RNA", "values": [{"measurement": "Kd", "setting": "[1]", "value": 220, "unit": "nM"}, {"measurement": "Kd", "setting": "[2]", "value": 40, "unit": "nM"}]}
{"molecule": "TARΔ23-39", "values": [{"measurement": "Kd", "setting": "[1]", "value": 190, "unit": "nM"}, {"measurement": "Kd", "setting": "[2]", "value": 54, "unit": "nM"}]}
{"molecule": "CUCUGGUUAGACCAGAUCUGAGCCUGGGAGCUCUCUGGCUAACUAGGG (structured_RNA)", "note": "[TARΔ4bp]", "values": [{"measurement": "Kd", "setting": "PKR (unphosphorylated) [3]; label: 3' FAM", "value": "50 ± 3", "unit": "nM"}, {"measurement": "Kd", "setting": "PKR dsRBMs [4]; label: 3' FAM", "value": "290 ± 20", "unit": "nM"}]}
{"molecule": "B1", "values": [{"measurement": "Kd", "setting": "PKR (unphosphorylated) [3]; [10]", "value": "35 ± 5", "unit": "nM"}, {"measurement": "Kd", "setting": "PKR dsRBMs [4]; [10]", "value": "120 ± 10", "unit": "nM"}, {"measurement": "Kd", "setting": "Tat44-60 WT [5]", "value": "160 ± 100", "unit": "nM"}]}
{"molecule": "B2", "values": [{"measurement": "Ka", "setting": "PKR (unphosphorylated) [6]", "value": "7.02 ± 0.11 log10 M-1"}, {"measurement": "Kd", "setting": "PKR dsRBMs [4]; label: 3' FAM", "value": "360 ± 120", "unit": "nM"}]}
{"molecule": "B3", "values": [{"measurement": "binding result", "setting": "NC (nucleocapsid)", "value": "binds"}, {"measurement": "binding result", "setting": "Tat44-60 WT [7]", "value": "binds"}, {"measurement": "binding result", "setting": "PKR dsRBMs [8]", "value": "binds"}]}
{"molecule": "B4", "values": [{"measurement": "binding result", "setting": "NC (nucleocapsid)", "value": "binds"}, {"measurement": "binding result", "setting": "Tat44-60 WT [7]", "value": "binds"}, {"measurement": "binding result", "setting": "PKR dsRBMs [8]", "value": "binds"}]}
{"molecule": "B5", "values": [{"measurement": "binding result", "setting": "NC (nucleocapsid)", "value": "binds"}, {"measurement": "binding result", "setting": "Tat44-60 WT [7]", "value": "binds"}, {"measurement": "binding result", "setting": "PKR dsRBMs [8]", "value": "binds"}]}
{"molecule": "B6", "values": [{"measurement": "binding result", "setting": "NC (nucleocapsid)", "value": "binds"}, {"measurement": "binding result", "setting": "Tat44-60 WT [7]", "value": "binds"}]}
{"molecule": "B7", "values": [{"measurement": "binding result", "setting": "Tat44-60 WT [9]", "value": "binds"}]}
{"molecule": "GUUAGACCAGAUCUGAGCCUGGGAGCUCUCUGGCUAAC (structured_RNA)", "note": "[TARΔ9bp]", "values": [{"measurement": "Kd", "setting": "PKR (unphosphorylated) [3]; label: 3' FAM", "value": "130 ± 40", "unit": "nM"}, {"measurement": "Kd", "setting": "PKR dsRBMs [4]; label: 3' FAM", "value": "1900 ± 700", "unit": "nM"}]}
{"molecule": "CCAGAUCUGAGCCUGGGAGCUCUCUGG (structured_RNA)", "note": "[TARΔ14bp]", "values": [{"measurement": "Kd", "setting": "PKR (unphosphorylated) [3]; label: 3' FAM", "value": "1230 ± 1000", "unit": "nM"}, {"measurement": "Kd", "setting": "PKR dsRBMs [4]; label: 3' FAM", "value": "2280 ± 700", "unit": "nM"}]}
